Series [1] concerns carboxylation of FIXgla-PC reporter protein in AV12 cells (reduction of vitamin K to KH2). In words: Cell-based VKOR activity assay in FIXgla-PC/AV12 or FIXgla-PC/VKOR-Y139F/AV12 cells, carboxylated reporter by ELISA. The arrangement: species or system Syrian golden hamster. In general terms: ELISA stands for enzyme-linked immunosorbent assay.
For series [2], the system named is carboxylation of FIXgla-PC reporter protein in HEK293 cells (reduction of KO to vitamin K). In words: Cell-based VKOR activity assay: recombinant VKOR/VKORH expressed in FIXgla-PC/HEK293 cells with KO and warfarin, carboxylated reporter by ELISA. Set-up: species or system human.

B1: MT-VKORH: Mycobacterium tuberculosis VKOR homologue, NP_217484, SEQ ID NO:18 (protein, listed as Mycobacterium tuberculosis)
chain: MVAARPAERSGDPAAVRVPVPSAWWVLIGGVIGLFASMTLTVEKVRILLDPIYVPSCNVNPIVSCGSVMTTPQASLLGFPNPLLGIAGFTVVVVTGVLAVAKVPLPRWYWIGLAVGILVGVAFVHWLIFQSLYRIGALCPYCMVVWAVIATLLVVVASIVFGPMRENRGSQERVGARLLYQWRWSLATLWFTTVFLLIMVRFWDYSTLI
For B1, the “support of reporter protein carboxylation” value in series [1] (transient expression in FIXgla-PC/AV12 not stably expressing VKOR-Y139F, KO and warfarin (FIG. 19B)) is listed as “produced significant carboxylated reporter protein”. The “activity in reducing vitamin K to KH2 to support carboxylation” value in series [1] (transient expression in FIXgla-PC/VKOR-Y139F/AV12, KO and warfarin (FIG. 19A)) is reported as “significant activity”. Also, the “activity relative to human VKOR-Y139F” value in series [2] (5 μM KO, 4 μM warfarin, 48 h, luciferase-normalized (FIG. 15B)) worked out at 2.5 fold. In series [2] (VKOR of the organism compared to human Y139F VKOR, cell-based carboxylation), the “Relative activity: Human Y139F” value was “Yes, greater”. Also, the “activity relative to human VKOR (Y139F)” value in series [2] (both human forms carry Y139F, 5 μM KO, 2 μM warfarin) worked out at 2 fold.

B2: hVKOR M. tuberculosis: human VKOR with residues 122-139 replaced by M. tuberculosis VKOR 129-146, SEQ ID NO:29 (protein)
chain: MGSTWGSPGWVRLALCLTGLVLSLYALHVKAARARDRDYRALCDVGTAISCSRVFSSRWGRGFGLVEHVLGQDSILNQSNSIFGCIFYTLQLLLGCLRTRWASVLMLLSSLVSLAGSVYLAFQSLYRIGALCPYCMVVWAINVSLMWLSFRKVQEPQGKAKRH
modifications: Human VKOR with amino acids 122-139 substituted with amino acids 129-146 of M. tuberculosis VKOR (RefSeq accession no. NP_217484)
For the molecule B2, the “ability of human VKOR with replaced residues 122-139 to use vitamin K to carboxylate the reporter” value in series [1] (11 μM K, 2 μM warfarin, 48 h, FIXgla-PC AV-12 (FIG. 11B)) is reported as “can utilize vitamin K to produce carboxylated reporter protein”. Also, in series [2] (5 μM KO, 2 μM warfarin, 48 h, HEK293 (FIG. 11C)), the “ability of human VKOR with replaced residues 122-139 to use KO to carboxylate the reporter” value is given as “functions as a VKOR”.

Values taken from patent publication US9631002B2, “Methods and compositions for producing active vitamin K-dependent proteins” (The University of North Carolina at Chapel Hill, priority 2010, dated 2017).
